Source: paper PMC4968818

Target: voltage-dependent anion channel (VDAC) protein (human (endogenous in T47D)) (UniProt P21796)
Experiment: co-IP; VDAC immunoprecipitated from cell lysate (anti-VDAC1/2/3, protein G agarose; lysate first blocked with 10 uM VDAC-binding membrane domain peptide), beads washed with PBS and incubated at RT for 50 min with recombinant HK at pH 7.8; western blots for HK-1, HK-2 and VDAC; band intensities normalized by VDAC bands

amount co-precipitated at pH 7.8, percent of that at pH 6.2 [%] | Binder
143 | recombinant hexokinase 1 (HK-1) (enzyme) MIAAQLLAYYFTELKDDQVKKIDKYLYAMRLSDETLIDIMTRFRKEMKNGLSRDFNPTATVKMLPTFVRSIPDGSEKGDFIALDLGGSSFRILRVQVNHEKNQNVHMESEVYDTPENIVHGSGSQLFDHVAECLGDFMEKRKIKDKKLPVGFTFSFPCQQSKIDEAILITWTKRFKASGVEGADVVKLLNKAIKKRGDYDANIVAVVNDTVGTMMTCGYDDQHCEVGLIIGTGTNACYMEELRHIDLVEGDEGRMCINTEWGAFGDDGSLEDIRTEFDREIDRGSLNPGKQLFEKMVSGMYLGELVRLILVKMAKEGLLFEGRITPELLTRGKFNTSDVSAIEKNKEGLHNAKEILTRLGVEPSDDDCVSVQHVCTIVSFRSANLVAATLGAILNRLRDNKGTPRLRTTVGVDGSLYKTHPQYSRRFHKTLRRLVPDSDVRFLLSESGSGKGAAMVTAVAYRLAEQHRQIEETLAHFHLTKDMLLEVKKRMRAEMELGLRKQTHNNAVVKMLPSFVRRTPDGTENGDFLALDLGGTNFRVLLVKIRSGKKRTVEMHNKIYAIPIEIMQGTGEELFDHIVSCISDFLDYMGIKGPRMPLGFTFSFPCQQTSLDAGILITWTKGFKATDCVGHDVVTLLRDAIKRREEFDLDVVAVVNDTVGTMMTCAYEEPTCEVGLIVGTGSNACYMEEMKNVEMVEGDQGQMCINMEWGAFGDNGCLDDIRTHYDRLVDEYSLNAGKQRYEKMISGMYLGEIVRNILIDFTKKGFLFRGQISETLKTRGIFETKFLSQIESDRLALLQVRAILQQLGLNSTCDDSILVKTVCGVVSRRAAQLCGAGMAAVVDKIRENRGLDRLNVTVGVDGTLYKLHPHFSRIMHQTVKELSPKCNVSFLLSEDGSGKGAALITAVGVRLRTEASS
213 | recombinant hexokinase 2 (HK-2) (enzyme) MIASHLLAYFFTELNHDQVQKVDQYLYHMRLSDETLLEISKRFRKEMEKGLGATTHPTAAVKMLPTFVRSTPDGTEHGEFLALDLGGTNFRVLWVKVTDNGLQKVEMENQIYAIPEDIMRGSGTQLFDHIAECLANFMDKLQIKDKKLPLGFTFSFPCHQTKLDESFLVSWTKGFKSSGVEGRDVVALIRKAIQRRGDFDIDIVAVVNDTVGTMMTCGYDDHNCEIGLIVGTGSNACYMEEMRHIDMVEGDEGRMCINMEWGAFGDDGSLNDIRTEFDQEIDMGSLNPGKQLFEKMISGMYMGELVRLILVKMAKEELLFGGKLSPELLNTGRFETKDISDIEGEKDGIRKAREVLMRLGLDPTQEDCVATHRICQIVSTRSASLCAATLAAVLQRIKENKGEERLRSTIGVDGSVYKKHPHFAKRLHKTVRRLVPGCDVRFLRSEDGSGKGAAMVTAVAYRLADQHRARQKTLEHLQLSHDQLLEVKRRMKVEMERGLSKETHASAPVKMLPTYVCATPDGTEKGDFLALDLGGTNFRVLLVRVRNGKWGGVEMHNKIYAIPQEVMHGTGDELFDHIVQCIADFLEYMGMKGVSLPLGFTFSFPCQQNSLDESILLKWTKGFKASGCEGEDVVTLLKEAIHRREEFDLDVVAVVNDTVGTMMTCGFEDPHCEVGLIVGTGSNACYMEEMRNVELVEGEEGRMCVNMEWGAFGDNGCLDDFRTEFDVAVDELSLNPGKQRFEKMISGMYLGEIVRNILIDFTKRGLLFRGRISERLKTRGIFETKFLSQIESDCLALLQVRAILQHLGLESTCDDSIIVKEVCTVVARRAAQLCGAGMAAVVDRIRENRGLDALKVTVGVDGTLYKLHPHFAKVMHETVKDLAPKCDVSFLQSEDGSGKGAALITAVACRIREAGQR
